Data published in the supplement of paper PMC10724198.
± gives the standard deviation of the averaged measurements.

Test system: Saccharomyces cerevisiae
Assay: protein stability index of tFT-peptide fusion (C-terminal peptide) (PSI (0-1 scale)); higher = more stable (slower turnover)
Conditions: genetic background: wild type; temperature: 30 C
Description: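 Multiplexed protein stability (MPS) profiling in S. cerevisiae. Random 12-aa peptides (tFT-X12 library) are fused to the C-terminus of a sfGFP-mCherry tandem fluorescent timer, after mCherry and a GGGS linker. Cells are FACS-sorted into 8 mCherry/sfGFP bins and deep-sequenced. The protein stability index (PSI) is the read-weighted bin average, scaled from 0 (unstable) to 1 (stable). Only peptides with >10 reads are reported; cells were grown at 30 °C in SC-His with glucose.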
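Note: PSI is a weighted mean of sequencing reads over stability bins, variants kept only with over 10 reads, mCherry proximal and sfGFP distal, peptide attached via GGGS linker.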

| Sequence | protein stability index |
| --- | --- |
| KAIKNKQKFKEK | 0.726 ± 0.012 |
| KAKCRNRQDEVI | 0.742 ± 0.026 |
| KALGFHGGLHRF | 0.5733 ± 0.0027 |
| KAQKKGRHSKEL | 0.712 ± 0.0059 |
| KARMEKKRKIKL | 0.728 ± 0.073 |
| KCAIKKQEQTSR | 0.642 ± 0.02 |
| KCLCSKSGSWPC | 0.685 ± 0.0078 |
| KCSSEPMCKTCR | 0.626 ± 0.053 |
| KDIVSEPKVKRE | 0.744 ± 0.012 |
| KDKGEKEKRRTK | 0.719 ± 0.077 |
| KDKRKAETKSRN | 0.688 ± 0.037 |
| KDVGKVATRRSK | 0.696 ± 0.028 |
| KEARKREHKQTN | 0.67 ± 0.094 |
| KEGSGQRRARRA | 0.686 ± 0.066 |
| KEHTKKQERTPK | 0.596 ± 0.051 |
| KEHTNKDEMPKE | 0.705 ± 0.074 |
| KEILTNNQKGQD | 0.6602 ± 0.0036 |
| KEKKNKKKKQNR | 0.701 ± 0.021 |
| KELNRRTNSPSE | 0.644 ± 0.046 |
| KENKKNDRRDII | 0.728 ± 0.023 |
| KENNWTKKKKGK | 0.655 ± 0.064 |
| KEQNKVHTQNKK | 0.755 ± 0.29 |
| KERARNTKRGSD | 0.641 ± 0.08 |
| KERLLTLHSHSH | 0.71 ± 0.037 |
| KERLQLSVNLNI | 0.628 ± 0.067 |

| Sequence | protein stability index |
| --- | --- |
| KETTEKTEIRII | 0.7 ± 0.012 |
| KEYNIKNEREEK | 0.716 ± 0.031 |
| KFNNIQNWRLAY | 0.787 ± 0.098 |
| KGCRYVGARHEG | 0.698 ± 0.017 |
| KGEGRERSRSRK | 0.768 ± 0.034 |
| KGGLLPWGPWNA | 0.743 ± 0.064 |
| KGGSVNRLSQVR | 0.6713 ± 0.00097 |
| KGHGTTCVGRQV | 0.677 ± 0.04 |
| KGICALKIATGK | 0.603 ± 0.032 |
| KGKRSRTRKPEE | 0.677 ± 0.013 |
| KGLSNGKNQIKM | 0.597 ± 0.036 |
| KGQGPAKTRTRE | 0.723 ± 0.031 |
| KGQKVAYSRHRA | 0.718 ± 0.063 |
| KGREKTKKKGTK | 0.688 ± 0.011 |
| KGTQINNRCKLK | 0.684 ± 0.078 |
| KHDIEYRTQIKK | 0.662 ± 0.033 |
| KHRIEYQEKNTF | 0.67 ± 0.019 |
| KIEHEGIKKGGT | 0.807 ± 0.14 |
| KIIKNKIKKHNK | 0.626 ± 0.018 |
| KIKERKNVKGKK | 0.685 ± 0.024 |
| KIKINKRIQNKK | 0.682 ± 0.036 |
| KIKKKRKQKGKQ | 0.722 ± 0.046 |
| KIKNNKNKKKKS | 0.693 ± 0.01 |
| KIKTIKKHKKKY | 0.713 ± 0.056 |
| KIMIRKIEIKKE | 0.69 ± 0.049 |

| Sequence | protein stability index |
| --- | --- |
| KINELGYMNLKM | 0.716 ± 0.013 |
| KIPEQRISKTKK | 0.745 ± 0.011 |
| KKAKEETSTPDC | 0.67 ± 0.034 |
| KKEISSTAGIIV | 0.637 ± 0.073 |
| KKETKLKKTEVK | 0.69 ± 0.095 |
| KKFRKGKKNKRK | 0.657 ± 0.03 |
| KKIEAKGMRNDS | 0.599 ± 0.055 |
| KKIQKKKKLIPQ | 0.7247 ± 0.0058 |
| KKIQKKTPAIDG | 0.671 ± 0.1 |
| KKIRGNSQLHPG | 0.63 ± 0.015 |
| KKITKPKSQRLV | 0.669 ± 0.014 |
| KKKEKKIKKTIK | 0.724 ± 0.048 |
| KKKEKQRQSKRR | 0.689 ± 0.026 |
| KKKGSKITKIKD | 0.699 ± 0.064 |
| KKKIRKKKVRRK | 0.649 ± 0.024 |
| KKKKKETKNAQQ | 0.685 ± 0.0077 |
| KKKKKHKKPIES | 0.666 ± 0.022 |
| KKKKKIPKKAKR | 0.666 ± 0.049 |
| KKKKKKEYTKTN | 0.718 ± 0.011 |
| KKKKKKKKEKKK | 0.726 ± 0.041 |
| KKKKKKKKKKKK | 0.6364 ± 0.00086 |
| KKKKKKKNTKTK | 0.644 ± 0.0076 |
| KKKKKKKTKKQK | 0.696 ± 0.024 |
| KKKKKKKTKKRK | 0.717 ± 0.029 |
| KKKKKKNNSKTT | 0.739 ± 0.19 |

| Sequence | protein stability index |
| --- | --- |
| KKKKKKTKNEIK | 0.643 ± 0.016 |
| KKKKKNKKENAE | 0.742 ± 0.086 |
| KKKKKNTIKKNK | 0.708 ± 0.0083 |
| KKKKKPKKQNSG | 0.6592 ± 0.0047 |
| KKKKKQKKKKGT | 0.713 ± 0.034 |
| KKKKKQRNQKAK | 0.612 ± 0.032 |
| KKKKKSKKKETR | 0.807 ± 0.11 |
| KKKKNHKRKKRN | 0.828 ± 0.041 |
| KKKKNKKKKKPK | 0.615 ± 0.041 |
| KKKKQKIRKVKK | 0.725 ± 0.084 |
| KKKKTKPKPKRM | 0.6594 ± 0.0047 |
| KKKNRKQKHKQL | 0.565 ± 0.014 |
| KKKQKKERKKTK | 0.649 ± 0.042 |
| KKKRKDKTKIDK | 0.658 ± 0.057 |
| KKKRKKKNRGKK | 0.6789 ± 0.004 |
| KKKTKTQTGKKS | 0.744 ± 0.016 |
| KKKTRIYKRQKR | 0.655 ± 0.077 |
| KKLGLINITIRV | 0.535 ± 0.017 |
| KKLNTYISQIEQ | 0.707 ± 0.0079 |
| KKMKSKTKEINK | 0.698 ± 0.035 |
| KKMKVEKGITQK | 0.775 ± 0.068 |
| KKNKKKNRTKIE | 0.657 ± 0.022 |
| KKNMIIRVMIGV | 0.495 ± 0.074 |
| KKQEKKKNKNDR | 0.646 ± 0.028 |
| KKQKEKEKLVYC | 0.733 ± 0.085 |

| Sequence | protein stability index |
| --- | --- |
| KKQNRTRLKKSK | 0.702 ± 0.03 |
| KKQQTIKKKKKR | 0.7014 ± 0.003 |
| KKRHERNYLVQS | 0.662 ± 0.066 |
| KKRRTCPNRRDK | 0.554 ± 0.036 |
| KKRTQKKKKYNR | 0.6943 ± 0.0063 |
| KKSRLNRIVMRH | 0.664 ± 0.073 |
| KKTEKKYNRNRG | 0.786 ± 0.1 |
| KKTKKKRGEYKK | 0.714 ± 0.017 |
| KKTLIQKEQIRR | 0.644 ± 0.022 |
| KLKDRRKNTEEI | 0.6961 ± 0.0033 |
| KLKKNKTREMET | 0.789 ± 0.018 |
| KLNLKVRKRERP | 0.66971 ± 0.00065 |
| KLPRPPQRLRLP | 0.684 ± 0.066 |
| KLQKINKIKNEI | 0.685 ± 0.032 |
| KLSIWRADKDLE | 0.688 ± 0.015 |
| KLSTGRGRTGYV | 0.698 ± 0.072 |
| KLVKWEGGYIVS | 0.61 ± 0.019 |
| KMGRTEIWTIHL | 0.685 ± 0.053 |
| KMSEERIGIEKN | 0.7038 ± 0.0029 |
| KMYKRPNYQKTK | 0.64 ± 0.024 |
| KNGQGQRKIPGK | 0.721 ± 0.023 |
| KNITIKKSKIKD | 0.61 ± 0.055 |
| KNKKNKCNKVKK | 0.726 ± 0.024 |
| KNKKYKNKQKQR | 0.714 ± 0.094 |
| KNKMGRKYTLPH | 0.654 ± 0.081 |

| Sequence | protein stability index |
| --- | --- |
| KNKTKQKTRTET | 0.704 ± 0.013 |
| KNKTLNKIIRLP | 0.717 ± 0.042 |
| KNKTTKKRKKRP | 0.695 ± 0.057 |
| KNNITTTNKRMK | 0.679 ± 0.0071 |
| KNRAEMREGIAL | 0.63 ± 0.018 |
| KNRENNTKIEIQ | 0.661 ± 0.014 |
| KPALPPITPNLC | 0.6727 ± 0.0036 |
| KPQAGPSRHPPS | 0.759 ± 0.064 |
| KQGHNEIMTKGK | 0.6814 ± 0.0015 |
| KQIPLFILRPQT | 0.704 ± 0.1 |
| KQKARRARGKEG | 0.65 ± 0.024 |
| KQQCKTGRRRLV | 0.716 ± 0.072 |
| KQQRTKKKEKKR | 0.628 ± 0.097 |
| KQRSKKCRETYR | 0.729 ± 0.019 |
| KQRTMNKVSKEK | 0.683 ± 0.045 |
| KQTICNTGPQWV | 0.6267 ± 0.0022 |
| KREKGLKQIVRL | 0.6827 ± 0.0029 |
| KRESETPKKHRK | 0.711 ± 0.068 |
| KRGRGPQFCDLY | 0.693 ± 0.045 |
| KRIQGEICVPGA | 0.682 ± 0.041 |
| KRITRKRIKRRR | 0.7772 ± 0.0015 |
| KRKDKKKKYIRK | 0.759 ± 0.085 |
| KRRKKKSKERER | 0.672 ± 0.015 |
| KRRNKTNREDTM | 0.68 ± 0.052 |
| KRTKKKKKMELE | 0.719 ± 0.013 |

| Sequence | protein stability index |
| --- | --- |
| KRYRLRVKIGNT | 0.5291 ± 0.0046 |
| KSAPAIRASRPR | 0.715 ± 0.0064 |
| KSEGKKHIDKKR | 0.63 ± 0.034 |
| KSEKKKKRKEKK | 0.718 ± 0.052 |
| KSGLMFCIGDWC | 0.7 ± 0.044 |
| KSKGVRITKVSN | 0.783 ± 0.02 |
| KSKIKKKKQTKR | 0.652 ± 0.051 |
| KSRKEREKSDNQ | 0.678 ± 0.037 |
| KSSNIDINCNQN | 0.691 ± 0.053 |
| KSVMVLRLLELK | 0.636 ± 0.032 |
| KSVPLCSLGTTG | 0.6726 ± 0.0036 |
| KSVQEPTPRKYR | 0.674 ± 0.026 |
| KSVSIKGKFTSK | 0.6494 ± 0.00087 |
| KTCGVGLDRMIG | 0.714 ± 0.0099 |
| KTKKKQKQHRKQ | 0.686 ± 0.033 |
| KTKVIFMYKKGQ | 0.675 ± 0.021 |
| KTMCNNLTKLQR | 0.622 ± 0.029 |
| KTNKKTIVKSQT | 0.674 ± 0.046 |
| KTQKYEIKNLKK | 0.581 ± 0.082 |
| KTRQSNAPRRTF | 0.707 ± 0.0091 |
| KVGQWLRGKSKR | 0.7171 ± 0.00075 |
| KVNKKKVITKQE | 0.713 ± 0.027 |
| KVQRINNKKERK | 0.677 ± 0.044 |
| KVWQISEVGAGY | 0.617 ± 0.024 |
| KYGTPFPPEVEM | 0.718 ± 0.034 |

| Sequence | protein stability index |
| --- | --- |
| KYNKQRQTRIET | 0.663 ± 0.019 |
| LAARHLNFPPIL | 0.711 ± 0.009 |
| LACTGFPPPFPL | 0.675 ± 0.017 |
| LADFLGVSLLAV | 0.5695 ± 0.0031 |
| LAFSGAWGILPL | 0.682 ± 0.067 |
| LAHRASICLARL | 0.695 ± 0.063 |
| LALEVSNLSCSV | 0.696 ± 0.022 |
| LALFDPAQRHAR | 0.704 ± 0.052 |
| LALWNGVSMEEE | 0.654 ± 0.039 |
| LALYISFGLSLI | 0.526 ± 0.031 |
| LALYPYIPDSPF | 0.636 ± 0.048 |
| LAPPPPAPPMSP | 0.717 ± 0.013 |
| LAPPVRECPFML | 0.692 ± 0.072 |
| LAPSPPPPPLPL | 0.677 ± 0.01 |
| LAPSPTSRPIKC | 0.677 ± 0.018 |
| LAPTPLAPSPPP | 0.728 ± 0.055 |
| LARTSVACEGLG | 0.703 ± 0.045 |
| LASLVANSRNSL | 0.798 ± 0.27 |
| LATLLIRLLGQA | 0.496 ± 0.0088 |
| LCAGASYTMTVP | 0.694 ± 0.021 |
| LCCMFGLAGRGV | 0.654 ± 0.0083 |
